The supplement of paper PMC10126150
± gives the standard deviation of the averaged measurements.

Test system: ATP
Experiment: switch fluorescence ratio, 500 uM ATP over buffer (Cy3 cluster intensity, sum of 5 cycles each) (fold (ratio)); higher = stronger signal-on switching upon ATP binding; sequences stand for … in TCGTCGGCAGCGTCAGATGTGTATAAGAGACAGTTTTTTTTTTTTTTTTTTTTTTTTT…TC
Details: aptamer strand: ATP DNA aptamer (quencher-CACCTGGGGGAGTATTGCGGAGGAAGG + anchor), 100 nM annealed; ATP concentration: 500 uM
How it was run: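 Between each of five buffer/ATP cycles, the flow-cell was stripped with NaOH and re-annealed. Each cycle imaged Cy3-labelled switching-strand clusters, annealed to 100 nM quencher-labelled ATP aptamer on a modified Illumina MiSeq flow-cell, first in selection buffer and then after 15 min with 500 uM ATP at 22 °C. The fluorescence ratio is summed target-cycle over summed buffer-cycle Cy3 intensity per cluster, averaged per switch-domain sequence, with clusters outside 100-1000 RFU excluded.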
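Further: ATP exposure 15 min at 22 °C before imaging.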

| Sequence | switch fluorescence ratio |
| --- | --- |
| ACGCAGTATA | 1.05 ± 0.013 |
| ACGCAGTTCT | 1.061 ± 0.008 |
| ACGCCCATTT | 1.15 ± 0.06 |
| ACGCCGGATT | 1.01 ± 0.027 |
| ACGCCGGCGA | 0.9729 ± 0.002 |
| ACGCCGGCTT | 1.272 ± 0.0019 |
| ACGCCGTATG | 1 ± 0.011 |
| ACGCGCGGAA | 1.008 ± 0.003 |
| ACGCTATCGC | 1.526 ± 0.0041 |
| ACGCTCCTAC | 2.64 ± 0.028 |
| ACGCTCGACC | 1.75 ± 0.15 |
| ACGCTGGTGT | 1.34 ± 0.44 |
| ACGCTGTCGG | 1.006 ± 0.0068 |
| ACGCTGTTGG | 1.01 ± 0.035 |
| ACGGAAAGTT | 0.9876 ± 0.0071 |
| ACGGAATTTT | 1.09 ± 0.08 |
| ACGGAGACGG | 0.979 ± 0.067 |
| ACGGAGGGTT | 0.992 ± 0.01 |
| ACGGATATGG | 0.98 ± 0.011 |
| ACGGATCCTT | 1.026 ± 0.0059 |
| ACGGATTAGG | 1.01 ± 0.021 |
| ACGGCAGGAA | 1.04 ± 0.043 |
| ACGGCATCAT | 1.076 ± 0.0017 |

| Sequence | switch fluorescence ratio |
| --- | --- |
| ACGGCCGGGG | 1.04 ± 0.027 |
| ACGGCGCTTA | 1.19 ± 0.054 |
| ACGGCGGGGG | 1.15 ± 0.25 |
| ACGGCTAGCG | 1.02 ± 0.022 |
| ACGGCTGCGT | 1.05 ± 0.029 |
| ACGGCTTACT | 1.208 ± 0.0019 |
| ACGGGCAGAG | 1.02 ± 0.013 |
| ACGGGCCGGT | 0.98 ± 0.069 |
| ACGGGCGCAG | 0.994 ± 0.017 |
| ACGGGCTGCT | 1 ± 0.018 |
| ACGGGGAGGG | 1.04 ± 0.037 |
| ACGGGGGAGT | 1.03 ± 0.019 |
| ACGGGGGCGC | 0.986 ± 0.059 |
| ACGGGGGCGG | 1 ± 0.033 |
| ACGGGGGCTT | 1.04 ± 0.062 |
| ACGGGGGGTT | 1.05 ± 0.085 |
| ACGGGGTCCG | 0.95 ± 0.03 |
| ACGGGGTCT | 1.02 ± 0.012 |
| ACGGGGTGGT | 1.065 ± 0.0059 |
| ACGGGGTGTA | 0.986 ± 0.041 |
| ACGGGTATGG | 1.01 ± 0.017 |
| ACGGGTGAGC | 1.09 ± 0.011 |
| ACGGGTGGGA | 1.005 ± 0.0036 |

| Sequence | switch fluorescence ratio |
| --- | --- |
| ACGGGTTGGC | 1.064 ± 0.0044 |
| ACGGGTTTGT | 0.9774 ± 0.0036 |
| ACGGTAAGTG | 1.02 ± 0.042 |
| ACGGTATCTT | 1.13 ± 0.019 |
| ACGGTATGTG | 1.03 ± 0.033 |
| ACGGTATTTG | 1.13 ± 0.035 |
| ACGGTCACCC | 1.66 ± 0.07 |
| ACGGTCGGA | 0.9979 ± 0.0048 |
| ACGGTCGTTA | 0.975 ± 0.027 |
| ACGGTCTGGC | 1.02 ± 0.035 |
| ACGGTGGTGT | 1.03 ± 0.016 |
| ACGGTTGAGC | 1 ± 0.021 |
| ACGGTTGATG | 0.986 ± 0.021 |
| ACGGTTGTTT | 1.0154 ± 0.00077 |
| ACGGTTTAAC | 1.105 ± 0.005 |
| ACGGTTTTTG | 0.993 ± 0.029 |
| ACGTAAACGC | 1.085 ± 0.0018 |
| ACGTACATGT | 1.44 ± 0.018 |
| ACGTAGGCGG | 1.02 ± 0.062 |
| ACGTATATTG | 1.058 ± 0.0052 |
| ACGTCAAGGG | 1.1 ± 0.067 |
| ACGTCAAGTA | 0.985 ± 0.022 |
| ACGTCGCATT | 1.19 ± 0.035 |

| Sequence | switch fluorescence ratio |
| --- | --- |
| ACGTCGCCGG | 0.987 ± 0.038 |
| ACGTCGGGCT | 1.01 ± 0.021 |
| ACGTCGGTAC | 3 ± 0.49 |
| ACGTCTTACT | 1.101 ± 0.0018 |
| ACGTCTTAGT | 1 ± 0.021 |
| ACGTGCAATT | 1.37 ± 0.21 |
| ACGTGGTATG | 1.02 ± 0.015 |
| ACGTGTACGG | 1.03 ± 0.022 |
| ACGTGTGAC | 1 ± 0.023 |
| ACGTTAAGCG | 1.01 ± 0.035 |
| ACGTTAATGC | 2.09 ± 0.21 |
| ACGTTAGGTC | 1.04 ± 0.019 |
| ACGTTATTTG | 1.11 ± 0.052 |
| ACGTTCGGAG | 1.05 ± 0.05 |
| ACGTTCGGCG | 0.9968 ± 0.0021 |
| ACGTTGCAGA | 1.006 ± 0.006 |
| ACGTTGCTAA | 1.0246 ± 0.00021 |
| ACGTTGCTGA | 1.02 ± 0.028 |
| ACGTTGTGAG | 0.969 ± 0.037 |
| ACGTTTACCA | 1.217 ± 0.0099 |
| ACGTTTCCCC | 1.09 ± 0.025 |
| ACGTTTTCGG | 0.9837 ± 0.0052 |
| ACGTTTTGAG | 1.0122 ± 0.00047 |

| Sequence | switch fluorescence ratio |
| --- | --- |
| ACTAAAAGGC | 1.0107 ± 3.2e-05 |
| ACTAAATAGT | 0.987 ± 0.013 |
| ACTAAGGATT | 1.02 ± 0.018 |
| ACTAAGGGCG | 1.09 ± 0.019 |
| ACTAAGGGGA | 1.03 ± 0.0058 |
| ACTAATAAGA | 1.01 ± 0.019 |
| ACTAATAAGG | 1.04 ± 0.029 |
| ACTAATGCGC | 1.05 ± 0.019 |
| ACTAGAACAT | 1.052 ± 0.0042 |
| ACTAGGAAAA | 0.997 ± 0.011 |
| ACTAGGGACA | 1.24 ± 0.028 |
| ACTAGGGGAC | 1.06 ± 0.085 |
| ACTAGGGGTT | 1.23 ± 0.34 |
| ACTAGGTGCG | 1.06 ± 0.045 |
| ACTAGTTTTC | 0.9611 ± 0.0091 |
| ACTATAAGAA | 1.03 ± 0.014 |
| ACTATAGGAC | 1.07 ± 0.017 |
| ACTATATTTT | 1.04 ± 0.0067 |
| ACTATCGGCA | 1.02 ± 0.029 |
| ACTATCTTTG | 0.9924 ± 0.0098 |
| ACTATGACGT | 1.04 ± 0.017 |
| ACTATGAGTT | 0.9975 ± 0.0073 |
| ACTATTCGT | 0.99 ± 0.026 |

| Sequence | switch fluorescence ratio |
| --- | --- |
| ACTATTTGTT | 1.04 ± 0.027 |
| ACTCAATCTG | 1.0397 ± 0.00024 |
| ACTCAGGAGT | 1.011 ± 0.0031 |
| ACTCCAGGAG | 1.06 ± 0.025 |
| ACTCGAGGTT | 1.05 ± 0.013 |
| ACTCGGGGAG | 1 ± 0.013 |
| ACTCGGTTGG | 1.03 ± 0.037 |
| ACTCGTAACT | 0.9931 ± 0.0057 |
| ACTCGTTAAA | 0.978 ± 0.014 |
| ACTCGTTGTT | 1.02 ± 0.024 |
| ACTCTACCGT | 1.29 ± 0.057 |
| ACTCTAGTTT | 1.048 ± 0.0027 |
| ACTCTTATAA | 1.048 ± 0.0059 |
| ACTGAAGCAT | 1.17 ± 0.021 |
| ACTGACTCA | 1.23 ± 0.048 |
| ACTGAGGATG | 1.06 ± 0.0063 |
| ACTGAGTTTA | 1.02 ± 0.019 |
| ACTGATGACG | 1.06 ± 0.078 |
| ACTGATGGAC | 1.06 ± 0.027 |
| ACTGATGGGT | 1 ± 0.013 |
| ACTGATTTAT | 1.01 ± 0.028 |
| ACTGCAAAAT | 1.127 ± 0.0017 |
| ACTGCTACGA | 1.36 ± 0.018 |

| Sequence | switch fluorescence ratio |
| --- | --- |
| ACTGGACACA | 1.22 ± 0.069 |
| ACTGGAGGAT | 1.05 ± 0.013 |
| ACTGGCAGTT | 1.01 ± 0.037 |
| ACTGGCTGTT | 1.03 ± 0.035 |
| ACTGGGATGG | 1.031 ± 0.0089 |
| ACTGGTATTG | 1.02 ± 0.025 |
| ACTGGTTAGT | 1 ± 0.045 |
| ACTGGTTTAG | 0.9975 ± 0.0095 |
| ACTGGTTTGG | 1.04 ± 0.063 |
| ACTGGTTTTT | 0.987 ± 0.036 |
| ACTGTACCCT | 1.22 ± 0.016 |
| ACTGTCATTA | 1.08 ± 0.019 |
| ACTGTCGTCT | 1.0405 ± 0.00033 |
| ACTGTGTACC | 1.04 ± 0.015 |
| ACTGTGTGGC | 0.992 ± 0.012 |
| ACTGTTAGCA | 1.061 ± 0.0046 |
| ACTGTTCCGA | 1.05 ± 0.054 |
| ACTGTTTCTC | 0.996 ± 0.022 |
| ACTGTTTTAT | 1.01 ± 0.038 |
